Results published in paper PMC12173945, “Import mechanism of peroxisomal proteins with an N-terminal signal sequence” (Nature Cell Biology, 2025).

B1: PEX7–GFP: PEX7 fused at the C terminus to a linker (SGSG) followed by mEGFP (protein)
chain: MLRYHMQGFSGYGVQYSPFFDNRLAVAAGSNFGLVGNGKLFILEIDRSGRIVEVNSFLTQDCLFDLAWNESHENQVLVAQGDGTLRLFDTTFKEFPIAIFKEHEREVFSCNWNLVNRQNFLSSSWDGSIKIWSPLRKQSLMTLTPRPLEITKMVDPLNAIILKKKSFTGISKNRNCVYQAQFSPHDQNLVLSCSGNSYASLFDIRLPSGKNQNNFLVHSGLEALTCDFNKYRPYVVATGGVDNAIRIWDIRMLNKNESATIKRTVPGQLHNSSCINEIPNAHGLAIRKVTWSPHHSNILMSASYDMTCRIWRDLSNDGAKETYKTNSTDATKGSIFNFTQHSEFVFGADWSLWGKPGYVASTAWDGNLFVWNGLG
modifications: left off: GST, N-terminal, cleaved | GFP, C-terminal, kept
B2: PEX7: full-length PEX7 from S. cerevisiae (GenBank accession no. NP_010426.1) (protein)
chain: B1 chain
modifications: left off: GST, N-terminal, cleaved

Assays:
[1] = test system: YG hydrogel (wild-type YG-domain polypeptide of PEX13); assay: YG hydrogel permeation assay, wild-type hydrogel (Fig. 2, Fig. 3g, Extended Data Fig. 9d); settings: wild-type hydrogel
Protocol: A solution of the purified wild-type YG-domain polypeptide (or the variant lacking the KPWE motif) was concentrated to 2 mM in 50 mM HEPES·NaOH pH 7.8 at RT, 2 M urea and 2 mM TCEP. Aliquots of 2 µl were then spotted on the bottom of multiple wells of a 96-well glass-bottomed plate (Cellvis, P96-1.5H-N), which was then sealed with a gas-impermeable AlumaSeal II film (Hampton Research, HR8-069) to prevent desiccation and incubated at RT for 24 h. Before each assay, the resulting gels were equilibrated overnight at RT in a 100-fold excess of Assay Buffer (25 mM HEPES·NaOH pH 7.8 at RT, 150 mM NaCl and 1 mM TCEP). A 0.5 µM solution of fluorescently labelled protein in Assay Buffer was then added to the samples, with or without additional components at the concentrations indicated in the text, and incubated at RT. Gels were imaged at the times indicated in the text using a Nikon A1R point-scanning confocal system consisting of an inverted Nikon Eclipse Ti microscope and a Nikon ×20 0.75 NA Plan Apo air objective. The objective was centred on the gel edge and focus was maintained 5 µm above the glass surface using the Nikon Perfect Focus System. Fluorescence was excited through a 405/488/561/647 quad-band dichroic (Chroma), using a 488-nm solid-state laser (Coherent) and a galvano scanner. A 50-nm emission band was collected on a gallium arsenide phosphide detector, using an ET525/50m (525 ± 25 nm) single-band bandpass filter (Chroma) and a pinhole dilated to 0.9 Airy units. Images were acquired using the Nikon NIS-Elements software with a pixel size of 1 µm and a 12-bit digitizer. Imaging parameters were configured to maximize the SNR while avoiding saturation. All samples intended to be compared were imaged using identical acquisition settings.
(§1) For the YG hydrogel permeation assay, images were first oriented such that each gel edge faced the same direction. Fluorescence profiles across the buffer–gel interface were then generated by centering a 60 × 300 µm rectangular area on the gel edge and then measuring the mean fluorescence at each position within this selection. To express the resulting values in terms of fold enrichment, the fluorescence at each position along the selection was normalized to the average fluorescence in the buffer and plotted in terms of the distance from the gel edge.
To calculate permeation rates through the YG hydrogel, a 60 × 300 µm rectangular area was first centred on the gel edge. The resulting region was then thresholded to demarcate the permeation zone (that is, the distance traversed by the fluorescent species) from the buffer and non-permeated part of the gel. The width of the area above the threshold was then measured and plotted as a function of time. A linear fit to the data yielded the permeation rate.

[2] = test system: peroxisomes in Xenopus egg extract; assay: Peroxisomal protein import assay in Xenopus egg extract; type: biochemical, Xenopus laevis; settings: GFP fusion, 1 h
Protocol: Import reactions were performed exactly as described in a previously published protocol. Briefly, extract was mixed with 500 nM of the indicated cargo and 100 nM of the indicated receptor variants with or without 100 nM PEX7, and incubated at 24 °C. Where stated, endogenous PEX5 was first depleted from the extract using agarose beads covalently conjugated to the high-affinity PEX5-binding domain from PEX14. Recombinant proteins were diluted in XBHS buffer (40 mM HEPES·KOH pH 7.7 at RT, 100 mM KCl, 1 mM MgCl2, 0.1 mM CaCl2 and 250 mM sucrose) before being added to the reactions. For imaging, an aliquot of each reaction was sandwiched between two 22 × 22 mm no. […] The samples were illuminated by an 80-mW solid-state 488-nm laser through a Di01-T405/488/568/647 dichroic (Semrock), and fluorescence was collected through a Nikon ×100 1.45 NA Plan Apo Lambda oil-immersion objective and a green-emission ET525/50 m (525 ± 25 nm) single-band bandpass filter (Chroma). […]
To calculate import rates in Xenopus egg extract, images were first thresholded to identify peroxisomes that were within the focal plane. A circular area with a diameter of 3 pixels was then centred on each local maximum and the mean fluorescence within this area was measured; the average fluorescence in the cytosol was then subtracted from the measured values. […]

[3] = test system: YG hydrogel (∆KPWE YG-domain polypeptide of PEX13); assay: YG hydrogel permeation assay, hydrogel lacking the KPWE motif (Fig. 3g); settings: 1 h
Protocol: A solution of the purified wild-type YG-domain polypeptide (or the variant lacking the KPWE motif) was concentrated to 2 mM in 50 mM HEPES·NaOH pH 7.8 at RT, 2 M urea and 2 mM TCEP. Aliquots of 2 µl were then spotted on the bottom of multiple wells of a 96-well glass-bottomed plate (Cellvis, P96-1.5H-N), which was then sealed with a gas-impermeable AlumaSeal II film (Hampton Research, HR8-069) to prevent desiccation and incubated at RT for 24 h. Before each assay, the resulting gels were equilibrated overnight at RT in a 100-fold excess of Assay Buffer (25 mM HEPES·NaOH pH 7.8 at RT, 150 mM NaCl and 1 mM TCEP). […] Fluorescence was excited through a 405/488/561/647 quad-band dichroic (Chroma), using a 488-nm solid-state laser (Coherent) and a galvano scanner. […]
as §1

Molecule | Entry into YG hydrogel [1] | Import into peroxisomes in Xenopus egg extract [2] | Entry into YG hydrogel lacking the KPWE motif [3]
B1 | readily entered the phase | enters peroxisomes only when it is assembled into a complex with PEX5 and cargo | –
B2 | – | – | some entry of PEX7 into YG hydrogels was observed in the absence of the KPWE motif
